B1: scFv-Fc B6-11 fusion antibody (Fc fusion, human)
VH: EVQLVESGGGLVQGGSLRLSCAASGFTFSSYAMSWVRQAPGKGLEWVSAISGSGGSTYYADSVKGRFTISRDNSKNTLYLQMNSLRAEDTAVYYCAKSSNVRTFDYWGQGTLVTVSR
VL: SSELTQDPAVSVALGQTVRITCQGDSLRSYYASWYQQKPGQAPVLVIYGKNNRPSGIPDRFSGSSSGNTASLTITGAQAEDEADYYCNSSTPLSAPVVFGGGTKLTVL
notes: Runs as a dimer under non-reducing SDS-PAGE; the Fc is that of the vector pFUSE-mIgG2B-Fc2 (Invivogen); also called scFv-mFc fusion antibody; source: HEK293, transfected (pFUSE-mIgG2B-Fc2), purified from culture supernatants (proteinAG UltraLink Resin); not shown: Fc (murine IgG2B), C-terminal, kept
B2: scFv B6-11 (scFv, V domains shown)
VH: B1 VH
VL: B1 VL
notes: VH of scFv B6-11 (ETH-2 library, human germline heavy chain segment with randomised CDR3); linker region; VL of scFv B6-11 (ETH-2 library, human germline light chain segment with randomised CDR3); Selected from the semi-synthetic human ETH-2 phage library on BECs (round 6); His-tag and Flag-tag come from phagemid pDN332; also called scFv B6-11 antibody; anti-CD146 scFv B6-11; source: E. coli TG1, …

What was measured:
[1] = target: T1, Recombinant human CD146 comprising the extracellular Met1-Gly559 portion of the protein precursor, C-terminal … (Homo sapiens, UniProt P43121-1); assay: ELISA; plates coated with recombinant CD146 or BSA at 100, 10 and 1 ng/ml overnight at 4°C, blocked with TBST/ 5% BSA; scFv or scFv-Fc added serially diluted, RT overnight; HRP-conjugated detection antibodies, absorbance at 450 nm; settings: both partners purified
T1 construct: signal peptide in the construct; human CD146 / MCAM / MUC18, extracellular Met1-Gly559 portion of the protein precursor (NP_006491.2); also called recombinant CD146; extracellular domain of recombinant human CD146; source: bought: Sino Biological Inc., Nr; 10115-H08H

[2] = target: T2, CD146 / MCAM on BECs and melanoma cells (Homo sapiens, UniProt P43121-1); assay: immunostaining of cells or tissue; immunofluorescence on fixed cells (BECs, LECs, HDMECs, melanoma cells) and human skin cryosections, co-staining with anti-podoplanin or commercial anti-CD146 antibody; settings: one partner purified
T2 construct: also called native CD146; CD146 expressed by BECs, melanoma cells; source: endogenous, on BECs and melanoma cell lines A375, CRL1676, HTB71 (fixed monolayers)

[3] = target: T3, CD146 of BEC lysate treated with PNGase F (N-linked oligosaccharides removed) (Homo sapiens, UniProt P43121-1, oligosaccharides removed from N-linked glycoprotein with PNGase F); assay: co-IP; BEC lysate incubated with scFv or scFv-Fc (or Fc only) at 4°C overnight, captured on Protein A/G resin; Western blot in reducing conditions with commercial anti-CD146 antibody; lysates with or without PNGase F, before or after addition of the scFv; settings: one partner purified
T3 construct: human CD146 / MCAM (NP_006491), endogenous in primary human blood endothelial cells, after PNGase F; band shifted down to 95 kDa; PNGase F was added before or after the scFv; also called deglycosylated CD146; source: endogenous, BEC lysate, treated with PNGase F (3 hrs at 37°C)

[4] = target: T2, CD146 / MCAM on BECs and melanoma cells; assay: ELISA; whole cell ELISA on confluent monolayers in 96-well plates fixed with PBS/ 1% PFA; purified scFv or scFv-Fc added; absorbance at 450 nm; settings: one partner purified

T2 sequence (P43121 24-646): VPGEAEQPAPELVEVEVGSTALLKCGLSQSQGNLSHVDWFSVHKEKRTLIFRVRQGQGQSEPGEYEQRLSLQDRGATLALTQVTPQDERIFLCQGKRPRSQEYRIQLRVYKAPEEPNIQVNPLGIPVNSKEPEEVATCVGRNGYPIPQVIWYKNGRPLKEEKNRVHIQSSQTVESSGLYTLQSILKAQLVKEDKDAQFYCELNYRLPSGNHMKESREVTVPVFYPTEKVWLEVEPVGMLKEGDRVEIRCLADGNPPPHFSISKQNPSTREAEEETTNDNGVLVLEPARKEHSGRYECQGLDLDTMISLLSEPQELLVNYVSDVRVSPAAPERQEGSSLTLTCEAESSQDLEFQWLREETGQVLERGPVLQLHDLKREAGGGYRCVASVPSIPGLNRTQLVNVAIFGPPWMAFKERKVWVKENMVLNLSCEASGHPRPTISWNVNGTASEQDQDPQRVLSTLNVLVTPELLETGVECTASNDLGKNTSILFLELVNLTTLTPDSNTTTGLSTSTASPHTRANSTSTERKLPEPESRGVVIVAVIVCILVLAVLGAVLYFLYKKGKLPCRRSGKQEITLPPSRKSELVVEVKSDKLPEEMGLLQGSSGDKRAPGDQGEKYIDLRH
T1 sequence (P43121 24-559): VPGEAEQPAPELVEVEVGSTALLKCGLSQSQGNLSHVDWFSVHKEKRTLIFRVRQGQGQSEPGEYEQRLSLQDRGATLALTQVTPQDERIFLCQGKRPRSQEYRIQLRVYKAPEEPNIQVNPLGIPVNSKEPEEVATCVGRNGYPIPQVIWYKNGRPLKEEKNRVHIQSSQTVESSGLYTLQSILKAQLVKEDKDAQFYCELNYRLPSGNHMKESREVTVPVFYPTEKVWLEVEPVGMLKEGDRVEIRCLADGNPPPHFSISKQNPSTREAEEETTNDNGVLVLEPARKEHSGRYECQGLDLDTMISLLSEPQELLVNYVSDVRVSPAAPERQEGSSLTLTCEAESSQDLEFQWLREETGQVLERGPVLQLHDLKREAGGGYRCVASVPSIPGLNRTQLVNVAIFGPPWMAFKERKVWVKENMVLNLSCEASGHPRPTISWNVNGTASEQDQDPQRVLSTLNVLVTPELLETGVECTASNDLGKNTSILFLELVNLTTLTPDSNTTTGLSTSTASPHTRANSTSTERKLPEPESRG
T3 sequence (P43121 24-646): as the sequence (P43121 24-646) above

Binder | binding result [1] | binding result [2] | binding result [3] | binding result [4]
B1 | binds | binds | – | –
B2 | binds | – | binds | binds
